Deubiquitination in vitro (extract of E. coli expressing Yuh1), share of the fusion deubiquitinated data for one substance are collected here from patent US5683904.

The target in this assay is ubiquitin-methionine-dihydrofolate reductase (mouse) (UniProt P00375).

Turning to “Yuh1 ubiquitin-specific protease (from UniProt P35127) (enzyme)”, the deubiquitination in vitro (extract of E. coli expressing Yuh1), share of the fusion deubiquitinated was < 50%.
